B1: Molecule B: Her2 (pertuzumab CLC)-CD28 (SA_Variant 8) 1+1 format (bispecific antibody, human IgG1, kappa, L234A L235A)
heavy 1: not shown
light 1: QVQLVQSGAEVKKPGASVKVSCKASGYTFTSYYIHWVRQAPGQGLEWIGSIYPGNVQTNYNEKFKDRATLTVDTSISTAYMELSRLRSDDTAVYFCTRSHYGLDFNFDVWGQGTTVTVSSASVAAPSVFIFPPSDEQLKSGTASVVCLLNNFYPREAKVQWKVDNALQSGNSQESVTEQDSKDSTYSLSSTLTLSKADYEKHKVYACEVTHQGLSSPVTKSFNRGEC
heavy 2: EVQLVESGGGLVQPGGSLRLSCAASGFTFNDYTMDWVRQAPGKGLEWVADVNPNSGGSIVNRRFKGRFTLSVDRSKNTLYLQMNSLRAEDTAVYYCARNLGPFFYFDYWGQGTLVTVSSASTKGPSVFPLAPSSKSTSGGTAALGCLVEDYFPEPVTVSWNSGALTSGVHTFPAVLQSSGLYSLSSVVTVPSSSLGTQTYICNVNHKPSNTKVDEKVEPKSCDKTHTCPPCPAPEAAGGPSVFLFPPKPKDTLMISRTPEVTCVVVDVSHEDPEVKFNWYVDGVEVHNAKTKPREEQYNSTYRVVSVLTVLHQDWLNGKEYKCKVSNKALGAPIEKTISKAKGQPREPQVCTLPPSRDELTKNQVSLSCAVKGFYPSDIAVEWESNGQPENNYKTTPPVLDSDGSFFLVSKLTVDKSRWQQGNVFSCSVMHEALHNHYTQKSLSLSP
light 2: DIQMTQSPSSLSASVGDRVTITCKASQDVSTAVAWYQQKPGKAPKLLIYSASFRYTGVPSRFSGSRSGTDFTLTISSLQPEDFATYYCQQHYTTPPTFGQGTKVEIKRTVAAPSVFIFPPSDRKLKSGTASVVCLLNNFYPREAKVQWKVDNALQSGNSQESVTEQDSKDSTYSLSSTLTLSKADYEKHKVYACEVTHQGLSSPVTKSFNRGEC
notes: huIgG1 PG-LALA CrossFab: VH/VL exchange in the CD28 Fab (knob), charged modifications in the Her2 Fab (hole); also called P1AF8305
B2: Molecule D: Her2 (trastuzumab CLC)-CD28 (SA_variant 8) 1+1 (bispecific antibody, human IgG1, kappa, L234A L235A)
heavy 1: not shown
light 1: QVQLVQSGAEVKKPGASVKVSCKASGYTFTSYYIHWVRQAPGQGLEWIGSIYPGNVQTNYNEKFKDRATLTVDTSISTAYMELSRLRSDDTAVYFCTRSHYGLDFNFDVWGQGTTVTVSSASVAAPSVFIFPPSDEQLKSGTASVVCLLNNFYPREAKVQWKVDNALQSGNSQESVTEQDSKDSTYSLSSTLTLSKADYEKHKVYACEVTHQGLSSPVTKSFNRGEC
heavy 2: not shown
light 2: DIQMTQSPSSLSASVGDRVTITCKASQDVSTAVAWYQQKPGKAPKLLIYSASFRYTGVPSRFSGSRSGTDFTLTISSLQPEDFATYYCQQHYTTPPTFGQGTKVEIKRTVAAPSVFIFPPSDRKLKSGTASVVCLLNNFYPREAKVQWKVDNALQSGNSQESVTEQDSKDSTYSLSSTLTLSKADYEKHKVYACEVTHQGLSSPVTKSFNRGEC
notes: huIgG1 PG-LALA CrossFab: VH/VL exchange in the CD28 Fab (knob), charged modifications in the Her2 Fab (hole); also called P1AF8338
B3: CD28(SA)_variant_15 (antibody, human IgG1, kappa, L234A L235A)
heavy: not shown
light: not shown
chain: DKTHTCPPCPAPEAAGGPSVFLFPPKPKDTLMISRTPEVTCVVVDVSHEDPEVKFNWYVDGVEVHNAKTKPREEQYNSTYRVVSVLTVLHQDWLNGKEYKCKVSNKALGAPIEKTISKAKGQPREPQVCTLPPSRDELTKNQVSLSCAVKGFYPSDIAVEWESNGQPENNYKTTPPVLDSDGSFFLVSKLTVDKSRWQQGNVFSCSVMHEALHNRFTQKSLSLSP
notes: tested from HEK supernatant, unpurified; also called P1AE3071
B4: CD28(SA)_variant_12 (antibody, human IgG1, kappa, L234A L235A)
heavy: not shown
light: DIQMTQSPSSLSASVGDRVTITCRASQNIYVWLNWYQQKPGKAPKLLIYKASNLYSGVPSRFSGSRSGTDFTLTISSLQPEDFATYYCQQGQTYPYTFGQGTKLEIKRTVAAPSVFIFPPSDRKLKSGTASVVCLLNNFYPREAKVQWKVDNALQSGNSQESVTEQDSKDSTYSLSSTLTLSKADYEKHKVYACEVTHQGLSSPVTKSFNRGEC
chain: DKTHTCPPCPAPEAAGGPSVFLFPPKPKDTLMISRTPEVTCVVVDVSHEDPEVKFNWYVDGVEVHNAKTKPREEQYNSTYRVVSVLTVLHQDWLNGKEYKCKVSNKALGAPIEKTISKAKGQPREPQVCTLPPSRDELTKNQVSLSCAVKGFYPSDIAVEWESNGQPENNYKTTPPVLDSDGSFFLVSKLTVDKSRWQQGNVFSCSVMHEALHNRFTQKSLSLSP
notes: tested from HEK supernatant, unpurified; also called P1AE3068
B5: CD28(SA)_variant_17 (antibody, human IgG1, kappa, L234A L235A)
heavy: not shown
light: not shown
chain: DKTHTCPPCPAPEAAGGPSVFLFPPKPKDTLMISRTPEVTCVVVDVSHEDPEVKFNWYVDGVEVHNAKTKPREEQYNSTYRVVSVLTVLHQDWLNGKEYKCKVSNKALGAPIEKTISKAKGQPREPQVCTLPPSRDELTKNQVSLSCAVKGFYPSDIAVEWESNGQPENNYKTTPPVLDSDGSFFLVSKLTVDKSRWQQGNVFSCSVMHEALHNRFTQKSLSLSP
notes: tested from HEK supernatant, unpurified; also called P1AE3073
B6: CD28(SA)_variant_16 (antibody, human IgG1, kappa, L234A L235A)
heavy: not shown
light: not shown
chain: DKTHTCPPCPAPEAAGGPSVFLFPPKPKDTLMISRTPEVTCVVVDVSHEDPEVKFNWYVDGVEVHNAKTKPREEQYNSTYRVVSVLTVLHQDWLNGKEYKCKVSNKALGAPIEKTISKAKGQPREPQVCTLPPSRDELTKNQVSLSCAVKGFYPSDIAVEWESNGQPENNYKTTPPVLDSDGSFFLVSKLTVDKSRWQQGNVFSCSVMHEALHNRFTQKSLSLSP
notes: tested from HEK supernatant, unpurified; also called P1AE3072

target: T1, Her2 expressed on the cell surface of the human breast cancer cell line KPL-4 (human, UniProt P04626 23-1255); experiment: flow cytometry (MFI PE); panel title on the sheet: Binding to human Her2, KPL4; R-PE F(ab')2 goat anti-human IgG Fcgamma secondary
T1 construct: endogenous Her2 of KPL-4 cells stood in the assay; also called ErbB2; human epidermal growth factor receptor-2

| EC50 (read off the curve) [nM] | Binder |
| --- | --- |
| ~3 | B1 |
| ~3 | B2 |

target: T2, human CD28 on CHO cells (parental cell line CHO-k1 ATCC #CCL-61, modified to stably overexpress human CD28) (human, UniProt P10747 19-220); experiment: flow cytometry (MFI PE); panel title on the sheet: Binding to human CD28, CHO-k1-huCD28; R-PE F(ab')2 goat anti-human IgG Fcgamma secondary
T2 construct: The whole entry (with signal peptide) is named; also called CHOk1-huCD28; CHOk1 huCD28

| binding result | Binder |
| --- | --- |
| binds | B1 |
| binds | B2 |

target: T2, human CD28 on CHO cells (parental cell …); experiment: flow cytometry (MFI PE), one-armed IgG from supernatant on CHO-k1 cells stably overexpressing human CD28; PE-conjugated goat anti-human secondary

| binding result | Binder |
| --- | --- |
| binds | B3 |
| binds | B4 |
| binds | B5 |
| binds | B6 |
